Laboratory results from the supplement of paper PMC9112550, “Optimization of the antimicrobial peptide Bac7 by deep mutational scanning” (BMC Biology, 2022).

Tested on: Escherichia coli TOP10
Assay: shrunken log2 fold change of peptide-encoding DNA abundance (4.5 h post-induction vs induction); higher = less antimicrobial activity (less host growth inhibition)
Conditions: time post-induction: 4.5 h; library: site-saturation at positions 5, 18, 19, 20
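Further: peptides expressed intracellularly from a pBAD plasmid library in pooled LB shake-flask culture, induced with 0.3% L-arabinose, DNA abundance read by NGS, three biological replicates, DESeq2 with apeglm shrinkage.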

RRIRIRPPRLPRPRPRPGFFPRP
shrunken log2 fold change: -0.00894

RRIRIRPPRLPRPRPRPGFHPRP
shrunken log2 fold change: 0.876

RRIRIRPPRLPRPRPRPGGAPRP
shrunken log2 fold change: 0.288

RRIRIRPPRLPRPRPRPGGIPRP
shrunken log2 fold change: -0.279

RRIRIRPPRLPRPRPRPGGNPRP
shrunken log2 fold change: -0.0373

RRIRIRPPRLPRPRPRPGHIPRP
shrunken log2 fold change: -0.327

RRIRIRPPRLPRPRPRPGHLPRP
shrunken log2 fold change: -0.101

RRIRIRPPRLPRPRPRPGIKPRP
shrunken log2 fold change: -0.0876

RRIRIRPPRLPRPRPRPGLTPRP
shrunken log2 fold change: -0.0421

RRIRIRPPRLPRPRPRPGLWPRP
shrunken log2 fold change: 0.0804

RRIRIRPPRLPRPRPRPGMNPRP
shrunken log2 fold change: -0.0956

RRIRIRPPRLPRPRPRPGNEPRP
shrunken log2 fold change: -0.0358

RRIRIRPPRLPRPRPRPGPDPRP
shrunken log2 fold change: -0.0181

RRIRIRPPRLPRPRPRPGQKPRP
shrunken log2 fold change: -0.0432

RRIRIRPPRLPRPRPRPGRYPRP
shrunken log2 fold change: -0.0696

RRIRIRPPRLPRPRPRPGSPPRP
shrunken log2 fold change: -0.19

RRIRIRPPRLPRPRPRPGTIPRP
shrunken log2 fold change: -0.438

RRIRIRPPRLPRPRPRPGVIPRP
shrunken log2 fold change: -0.0127

RRIRIRPPRLPRPRPRPGWVPRP
shrunken log2 fold change: 0.28

RRIRIRPPRLPRPRPRPGYGPRP
shrunken log2 fold change: -0.309

RRIRIRPPRLPRPRPRPHCHPRP
shrunken log2 fold change: -0.394

RRIRIRPPRLPRPRPRPHCRPRP
shrunken log2 fold change: -0.341

RRIRIRPPRLPRPRPRPHCYPRP
shrunken log2 fold change: -0.104

RRIRIRPPRLPRPRPRPHEGPRP
shrunken log2 fold change: -0.0113

RRIRIRPPRLPRPRPRPHGLPRP
shrunken log2 fold change: -0.00134

RRIRIRPPRLPRPRPRPHGNPRP
shrunken log2 fold change: 0.142

RRIRIRPPRLPRPRPRPHHFPRP
shrunken log2 fold change: -0.313

RRIRIRPPRLPRPRPRPHHTPRP
shrunken log2 fold change: -0.677

RRIRIRPPRLPRPRPRPHHYPRP
shrunken log2 fold change: -0.429

RRIRIRPPRLPRPRPRPHISPRP
shrunken log2 fold change: -0.0489

RRIRIRPPRLPRPRPRPHIYPRP
shrunken log2 fold change: 0.13

RRIRIRPPRLPRPRPRPHLEPRP
shrunken log2 fold change: -0.384

RRIRIRPPRLPRPRPRPHMGPRP
shrunken log2 fold change: -1.08

RRIRIRPPRLPRPRPRPHMNPRP
shrunken log2 fold change: -0.845

RRIRIRPPRLPRPRPRPHMRPRP
shrunken log2 fold change: 0.128

RRIRIRPPRLPRPRPRPHNDPRP
shrunken log2 fold change: -0.55

RRIRIRPPRLPRPRPRPHPAPRP
shrunken log2 fold change: -0.516

RRIRIRPPRLPRPRPRPHPSPRP
shrunken log2 fold change: -0.488

RRIRIRPPRLPRPRPRPHRNPRP
shrunken log2 fold change: -0.846

RRIRIRPPRLPRPRPRPHSLPRP
shrunken log2 fold change: 0.0644

RRIRIRPPRLPRPRPRPHSRPRP
shrunken log2 fold change: -0.197

RRIRIRPPRLPRPRPRPHTCPRP
shrunken log2 fold change: -0.0906

RRIRIRPPRLPRPRPRPHTMPRP
shrunken log2 fold change: -0.776

RRIRIRPPRLPRPRPRPHTTPRP
shrunken log2 fold change: 0.0536

RRIRIRPPRLPRPRPRPHVPPRP
shrunken log2 fold change: -0.00519

RRIRIRPPRLPRPRPRPHVRPRP
shrunken log2 fold change: 0.031

RRIRIRPPRLPRPRPRPHYDPRP
shrunken log2 fold change: -0.801

RRIRIRPPRLPRPRPRPHYYPRP
shrunken log2 fold change: -0.413

RRIRIRPPRLPRPRPRPIAHPRP
shrunken log2 fold change: -0.358

RRIRIRPPRLPRPRPRPICVPRP
shrunken log2 fold change: -0.181

RRIRIRPPRLPRPRPRPIECPRP
shrunken log2 fold change: -0.314

RRIRIRPPRLPRPRPRPIFMPRP
shrunken log2 fold change: -0.376

RRIRIRPPRLPRPRPRPIFSPRP
shrunken log2 fold change: -0.181

RRIRIRPPRLPRPRPRPIGFPRP
shrunken log2 fold change: 0.0766

RRIRIRPPRLPRPRPRPIGLPRP
shrunken log2 fold change: -0.242

RRIRIRPPRLPRPRPRPIHKPRP
shrunken log2 fold change: -0.782

RRIRIRPPRLPRPRPRPIHYPRP
shrunken log2 fold change: -0.791

RRIRIRPPRLPRPRPRPIICPRP
shrunken log2 fold change: -0.775

RRIRIRPPRLPRPRPRPIIFPRP
shrunken log2 fold change: -0.667

RRIRIRPPRLPRPRPRPIIGPRP
shrunken log2 fold change: -0.13

RRIRIRPPRLPRPRPRPIKTPRP
shrunken log2 fold change: -0.0553

RRIRIRPPRLPRPRPRPILSPRP
shrunken log2 fold change: -0.421

RRIRIRPPRLPRPRPRPIMSPRP
shrunken log2 fold change: 0.0262

RRIRIRPPRLPRPRPRPINQPRP
shrunken log2 fold change: -0.345

RRIRIRPPRLPRPRPRPIPTPRP
shrunken log2 fold change: -0.0342

RRIRIRPPRLPRPRPRPIQHPRP
shrunken log2 fold change: -0.468

RRIRIRPPRLPRPRPRPIQPPRP
shrunken log2 fold change: -0.044

RRIRIRPPRLPRPRPRPIQSPRP
shrunken log2 fold change: -0.0915

RRIRIRPPRLPRPRPRPIRPPRP
shrunken log2 fold change: -0.277

RRIRIRPPRLPRPRPRPIRWPRP
shrunken log2 fold change: 0.0124

RRIRIRPPRLPRPRPRPITKPRP
shrunken log2 fold change: -0.123

RRIRIRPPRLPRPRPRPIVLPRP
shrunken log2 fold change: -0.181

RRIRIRPPRLPRPRPRPIWCPRP
shrunken log2 fold change: -0.00146

RRIRIRPPRLPRPRPRPIWKPRP
shrunken log2 fold change: -0.0131

RRIRIRPPRLPRPRPRPIWNPRP
shrunken log2 fold change: -0.263
